In patent publication US20100184658A1 (published 2010):

Experiments:
Assay in all cases: cell-based or functional assay
[1] = target: RPS6KA6 (RSK4) (UniProt Q9UK32 1-745, limits assumed)
[2] = target: T1, CHEK1 (CHK1) CHK1 checkpoint homolog (UniProt O14757 1-476, limits assumed)
T1 sequence (looked up): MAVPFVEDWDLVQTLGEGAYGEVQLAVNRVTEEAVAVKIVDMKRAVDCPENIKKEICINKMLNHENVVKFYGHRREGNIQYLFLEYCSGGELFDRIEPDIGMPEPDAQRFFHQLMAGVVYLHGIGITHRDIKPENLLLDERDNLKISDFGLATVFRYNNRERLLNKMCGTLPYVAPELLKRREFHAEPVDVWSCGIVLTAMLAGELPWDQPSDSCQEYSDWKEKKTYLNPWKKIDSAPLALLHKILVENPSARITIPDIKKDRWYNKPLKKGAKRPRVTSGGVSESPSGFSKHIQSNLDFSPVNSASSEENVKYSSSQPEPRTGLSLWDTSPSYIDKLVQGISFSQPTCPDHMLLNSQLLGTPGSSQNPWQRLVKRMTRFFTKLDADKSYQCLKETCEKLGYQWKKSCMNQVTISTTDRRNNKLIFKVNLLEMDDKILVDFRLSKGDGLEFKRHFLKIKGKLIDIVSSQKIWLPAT

[3] = target: SRPK2 (UniProt P78362 1-688, limits assumed)
[4] = target: T2, SGKL (SGK3) Serum/glucocorticoid regulated kinase family, member 3 (UniProt Q96BR1 1-496, limits assumed)
T2 sequence (looked up): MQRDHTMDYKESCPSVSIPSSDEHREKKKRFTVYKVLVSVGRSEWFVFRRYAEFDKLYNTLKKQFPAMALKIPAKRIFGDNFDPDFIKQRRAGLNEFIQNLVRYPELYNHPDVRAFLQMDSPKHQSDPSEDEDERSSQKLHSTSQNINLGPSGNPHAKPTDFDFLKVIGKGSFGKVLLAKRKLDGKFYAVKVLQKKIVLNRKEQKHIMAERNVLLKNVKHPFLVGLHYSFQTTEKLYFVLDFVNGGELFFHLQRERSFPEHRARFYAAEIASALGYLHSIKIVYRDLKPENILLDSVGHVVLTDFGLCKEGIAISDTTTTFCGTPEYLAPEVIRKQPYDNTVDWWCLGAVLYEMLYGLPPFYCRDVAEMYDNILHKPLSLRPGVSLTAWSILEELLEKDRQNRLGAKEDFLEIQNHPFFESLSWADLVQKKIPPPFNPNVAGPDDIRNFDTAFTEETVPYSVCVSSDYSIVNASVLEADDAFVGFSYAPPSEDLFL

[5] = target: T3, SGK (SGK1) Serum/glucocorticoid regulated kinase (human (printed as (h)), UniProt O00141 60-431, limits assumed)
T3 sequence (looked up): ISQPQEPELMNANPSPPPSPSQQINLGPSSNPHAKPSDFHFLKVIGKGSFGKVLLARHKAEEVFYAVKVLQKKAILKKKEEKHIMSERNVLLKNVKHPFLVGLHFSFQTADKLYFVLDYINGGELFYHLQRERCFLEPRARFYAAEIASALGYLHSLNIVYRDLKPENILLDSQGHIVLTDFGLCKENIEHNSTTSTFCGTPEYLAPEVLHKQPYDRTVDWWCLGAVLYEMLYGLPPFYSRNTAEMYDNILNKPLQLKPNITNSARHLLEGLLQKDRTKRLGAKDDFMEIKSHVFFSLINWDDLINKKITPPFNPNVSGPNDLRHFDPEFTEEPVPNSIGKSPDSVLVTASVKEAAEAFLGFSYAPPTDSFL

[6] = target: CLK2 (UniProt P49760 1-499, limits assumed)
[7] = target: RAF1 (cRAF) Y340D Y341D c-Raf (UniProt P04049 306-648, limits assumed)
[8] = target: T4, GRK7 (UniProt Q8WTQ7 1-553, limits assumed)
T4 sequence (looked up): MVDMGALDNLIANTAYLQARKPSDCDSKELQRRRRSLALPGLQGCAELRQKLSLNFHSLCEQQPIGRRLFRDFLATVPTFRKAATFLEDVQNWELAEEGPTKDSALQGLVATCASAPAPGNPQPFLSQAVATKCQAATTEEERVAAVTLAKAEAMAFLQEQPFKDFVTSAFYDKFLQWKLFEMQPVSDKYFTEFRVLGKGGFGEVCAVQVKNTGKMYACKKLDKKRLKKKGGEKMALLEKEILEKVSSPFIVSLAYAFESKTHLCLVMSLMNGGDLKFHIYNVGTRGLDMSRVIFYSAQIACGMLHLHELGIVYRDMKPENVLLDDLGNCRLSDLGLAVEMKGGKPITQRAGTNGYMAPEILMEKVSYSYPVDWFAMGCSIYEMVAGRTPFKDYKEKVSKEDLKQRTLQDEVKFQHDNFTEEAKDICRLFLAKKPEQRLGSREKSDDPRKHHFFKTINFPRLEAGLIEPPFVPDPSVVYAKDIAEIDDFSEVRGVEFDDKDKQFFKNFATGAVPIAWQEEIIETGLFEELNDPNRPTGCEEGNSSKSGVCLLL

[9] = target: CAMK1D (CaMKI delta) Calcium/calmodulin-dependent protein kinase I delta (UniProt Q8IU85 1-385, limits assumed)
[10] = target: ROCK2 (UniProt O75116 5-554, limits assumed)
[11] = target: T5, PHKG2 Phosphorylase kinase, gamma 2 (UniProt P15735 1-406, limits assumed)
T5 sequence (looked up): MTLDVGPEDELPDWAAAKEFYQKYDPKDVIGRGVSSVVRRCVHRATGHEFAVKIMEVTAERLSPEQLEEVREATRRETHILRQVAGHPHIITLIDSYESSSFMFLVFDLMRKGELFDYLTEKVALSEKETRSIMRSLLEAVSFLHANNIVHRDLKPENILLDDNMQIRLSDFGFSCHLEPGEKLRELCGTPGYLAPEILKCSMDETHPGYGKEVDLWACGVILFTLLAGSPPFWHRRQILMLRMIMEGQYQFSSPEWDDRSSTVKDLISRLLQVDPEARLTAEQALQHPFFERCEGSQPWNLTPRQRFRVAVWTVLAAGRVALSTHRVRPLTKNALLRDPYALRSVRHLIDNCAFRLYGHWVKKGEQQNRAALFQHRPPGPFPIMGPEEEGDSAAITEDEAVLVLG

[12] = target: MAPK8 (JNK1) Mitogen-activated protein kinase 8 (UniProt P45983 1-427, limits assumed)

Binder: SGRPPMIVWFNRPFLIAVSHTHGQTILFMAKVINPVGA [D3 peptide]
- % Inhibition mean [1]: 87.6%
- % Inhibition mean [2]: 74%
- % Inhibition mean [3]: 79.2%
- % Inhibition mean [4]: 97%
- % Inhibition mean [5]: 100%
- % Inhibition mean [6]: 65.9%
- % Inhibition mean [7]: 94.6%
- % Inhibition mean [8]: 49.9%
- % Inhibition mean [9]: 98%
- % Inhibition mean [10]: 66.7%
- % Inhibition mean [11]: 87%
- % Inhibition mean [12]: 89%
